Laboratory results as given in article PMC9289880 (Journal of Medicinal Chemistry, 2022).
Bridges are numbered along the chain shown (N, C = ends).

Molecular target: KRAS^G12D (GDP) (UniProt P01116 1-189, G12D)
Assay: cell-based or functional assay

B1: peptide 2 (KRpep-2) (peptide)
peptide: Ac-RRCPLYISYDPVCRR-NH2
modifications: disulfide 3-13
- KRAS^G12D SOS GNE IC50 (TR-FRET, SOS-catalysed Bodipy-GDP/GTP exchange): 54 nM
